{"source": "patent US9616101B2", "about": "“Differentiation marker and differentiation control of eye cell” (Kyoto Prefectural Public University Corporation, priority 2012, dated 2017)", "key": {"[1]": {"test_system": "cultured human corneal endothelial cell", "experiment": "Culture of human corneal endothelial cells with or without RSPO: cell morphology and cell density", "type": "cell-based", "from_the_text": "GPR49/LGR5 was an orphan receptor of a G protein-coupled receptor superfamily, and a ligand thereof was not known previously. […] In order to determine the function of RSPO on CEC differentiation, the present inventors cultured primate CEC with human recombinant RSPO, or without human recombinant RSPO. […] In order to determine the function of RSPO on CEC proliferation, the present inventors performed immunohistochemical research on Ki67. […] In view of these findings, the present inventors considered that among a RSPO family, particularly, RSPO1 can play an important role in maintenance of CEC.\nFinally, in order to further determine influence of RSPO1 on CEC, the present inventors maintained a secondary culture of human CEC in the presence or absence of RSPO1. […] The cell density of a RSPO1-treated cell increased as compared with that of a non-treated cell (FIG. 6B-E). In order to verify which pathway regulated this type of corneal endothelial MT, the present inventors investigated the expression level of a Wnt/β-catenin-associated molecule using Western blotting analysis. […] Further, the protein level of a cell transfected with NT and GPR49/LGR5 and treated with RSPO1 decreased as compared with that of a cell group not treated with RSPO1 (FIG. 6B-F).\nA cultured human corneal endothelial cell was cultured for 7 days under conditions of 37° C. and 5% CO2, with being divided into a group of addition of RSPO1 (50 ng/ml) and a group of addition of no RSPO1. […] From the above result, the effect of suppressing differentiation of a corneal endothelial cell was recognized in RSPO1."}, "[2]": {"test_system": "corneal endothelial cell of rabbit sclerocorneal section", "experiment": "Organ culture of rabbit sclerocorneal section with R-spondin 1: corneal endothelial cell density (ZO-1)", "type": "cell-based, white rabbit", "conditions": "control 3674", "protocol": "(§1) Eyeballs of white rabbit (Nacalai) euthanized for another object were purchased, and a sclerocorneal section was prepared. The sclerocorneal section was cultured in an incubator at 37° C. for 1 week in DMEM (INVITROGEN, catalog No.: 12320) and 10% fetal bovine serum (FBS) (BIOWEST, catalog No.: 51820-500). […] A corneal endothelial cell was subjected to nuclear staining with DAPI, and the Ki67-positive cell rate was calculated. In addition, a corneal endothelial cell was immunostained with ZO-1, and the cell density was calculated."}, "[3]": {"test_system": "corneal endothelial cell of rabbit sclerocorneal section", "experiment": "Organ culture of rabbit sclerocorneal section with R-spondin 1: Ki67-positive cell rate", "type": "cell-based, white rabbit", "conditions": "control about 1.0%", "protocol": "as §1"}, "[4]": {"test_system": "human corneal endothelial cell", "experiment": "Ki67 immunostaining of human corneal endothelial cells incubated with RSPO1 to 4", "type": "cell-based", "from_the_text": "A corneal tissue was embedded with OCT compound (catalog No.: 4583; Sakura Finetek, Tokyo, Japan), and frozen in liquid nitrogen to prepare a frozen corneal tissue section. The frozen block was sliced to 8 μm, applied on a silane-coating slide, and air-dried. For preparing the whole tissue section, a Descemet's membrane containing a corneal endothelial cell was peeled from a corneal tissue, allowed to stand in ice-cooled 100% acetone for 30 seconds, applied on a silane-coating slide, and air-dried. As a cultured corneal endothelial cell, a cell cultured on a LabTek 8-well plastic chamber slide was used. Ice-cooled 100% acetone was added to a corneal tissue and the cultured cell, the resultant was allowed to stand at 4° C. for 15 minutes to fix the cell. After shaking and washing with 0.15% TritonX/PBS-, 1% bovine serum albumin (catalog No.: A4503BSA; Sigma-Aldrich, St. Louis, Mo.) was added, and allowed to stand at room temperature for 30 minutes to perform blocking. A primary antibody was diluted with 1% BSA, and incubated at room temperature for 1 hour. As a primary antibody to be used, anti-rabbit GPR49/LGR5 (catalog No.: GTX71143; 1: 200; GeneTex Inc., San Antonio, Tex.), anti-rabbit Nestin (catalog No.: PRB-570C; 1: 200; COVANCE, Berkeley, Calif.), anti-mouse ABCG2 (catalog No.: NC_236; 1: 2; Kamiya biomedical CO., Seattle, Wash. USA), anti-mouse Ki-67 (catalog No.: 556003; 1: 200 BD Pharmingen™ NJ, USA), anti-rabbit Na^+/K^+ ATPase (catalog No.: A132; 1: 100; Zymed), and anti-rabbit ZO1 (Zymed Laboratries Inc., South San Francisco, Calif.) were used. The resultant was washed with 0.15% Triton/PBS- twice, and PBS- once.\nA secondary antibody was diluted with a mixed solution of 1% BSA and 0.15% TrironX/PBS-, and incubated at room temperature for 30 minutes. As a secondary antibody to be used, Alexa™ Fluor 488-labeled (conjugated) goat anti-rabbit IgG (catalog No.: A11034; 1: 1500; Molecular Probe-Invitrogen) and Alexa™ Fluor 488-labeled (conjugated) goat anti-mouse IgG (catalog No.: A11029; 1: 1500; Molecular Probe-Invitrogen) were used. The secondary antibody was shaken and washed with 0.15% Triton/PBS- twice, and PBS- once, subjected to nuclear staining with propidium iodide (catalog No.: SP29004-41; PI; Nacalai Tesque, Inc. Kyoto, Japan), and embedded while covered with a cover glass.\nIn order to investigate a relationship between R-sporadin 1 (RSPO1), R-spondin 2 (RSPO2), R-spondin 3 (RSPO3), or R-spondin 4 (RSPO4) and differentiation of a corneal endothelial cell, the relationship was studied using RSPO1. Reagents used are as follows. • RSPO1 R&D systems catalog No.: 4645-RS • RSPO2 R&D systems catalog No.: 3266-RS • RSPO3 R&D systems catalog No.: 3500-RS • RSPO4 R&D systems catalog No.: 4575-RS\nThen, for the purpose of investigating the influence of RSPO on cell proliferation, RSPO1 to 4 were incubated into a human corneal endothelial cell under conditions of 37° C. and 5% CO2 for 1 day. Thereafter, Ki-67 being a cell proliferation marker was immunostained."}}}
{"molecule": "R-spondin 1: Recombinant Human R-spondin 1 (R&D Cat. 4645-RS); ligand of GPR49/LGR5 (protein, listed as Homo sapiens) MRLGLCVVALVLSWTHLTISSRGIKGKRQRRISAEGSQACAKGCELCSEVNGCLKCSPKLFILLERNDIRQVGVCLPSCPPGYFDARNPDMNKCIKCKIEHCEACFSHNFCTKCKEGLYLHKGRCYPACPEGSSAANGTMECSSPAQCEMSEWSPWGPCSKKQQLCGFRRGSEERTRRVLHAPVGDHAACSDTKETRRCTVRRVPCPEGQKRRKGGQGRRENANRNLARKESKEAGAGSRRRKGQQQQQQQGTVGPLTSAGPA", "values": [{"measurement": "cell morphology / in vitro CEC differentiation (phase contrast)", "setting": "[1]; 50 ng/ml (FIG. 6C-B)", "result": "compact and uniform hexagonal cell having a smaller size"}, {"measurement": "cell form in secondary culture of human CEC", "setting": "[1]; RSPO1 50 ng/ml (FIG. 6B-E), without RSPO1 fibroblast-like phenotype", "result": "maintained its hexagonal form"}, {"measurement": "morphology of a cell", "setting": "[1]; RSPO1 50 ng/ml, 7 days, non-addition group differentiated into fibroblast-like cells", "result": "maintained in a cobblestone manner"}, {"measurement": "cell density as compared with a non-treated cell", "setting": "[1]; secondary culture of human CEC, RSPO1 50 ng/ml", "result": "increased"}, {"measurement": "corneal endothelial cell density", "setting": "[2]; 1 ng/ml R-spondin 1, 1 week", "result": 4314, "unit": "cells/mm^2"}, {"measurement": "corneal endothelial cell density", "setting": "[2]; 10 ng/ml R-spondin 1, 1 week", "result": 4626, "unit": "cells/mm^2"}, {"measurement": "corneal endothelial cell density", "setting": "[2]; 100 ng/ml R-spondin 1, 1 week", "result": 5037, "unit": "cells/mm^2"}, {"measurement": "rate of a Ki67-positive cell", "setting": "[3]; 1 ng/ml R-spondin 1, 1 week", "result": 4.49, "unit": "%"}, {"measurement": "rate of a Ki67-positive cell", "setting": "[3]; 10 ng/ml R-spondin 1, 1 week", "result": 10.58, "unit": "%"}, {"measurement": "rate of a Ki67-positive cell", "setting": "[3]; 100 ng/ml R-spondin 1, 1 week", "result": 7.94, "unit": "%"}, {"measurement": "level of the Ki67(+) cell ratio", "setting": "[4]; 50 ng/ml (FIG. 6C-C), as compared with other RSPOs", "result": "dramatically increased"}, {"measurement": "Ki67 staining", "setting": "[4]; R-spondin 1 1000 ng/ml (FIG. 11)", "result": "staining is also observed"}, {"measurement": "Ki67-positive cell rate as compared with a control", "setting": "[4]; RSPO1 50 ng/ml, 500 ng/ml (FIG. 11)", "result": "increased"}, {"measurement": "proliferation of a human corneal endothelial cell (Ki-67 immunostain)", "setting": "[4]; incubated 1 day, 37° C., 5% CO2", "result": "statistically significantly promoted proliferation"}]}
